Measurements reported in patent US20260137799A1, “ANTI-MUC1* ANTIBODY DRUG COMPLEXES AND USES THEREOF” (Minerva Biotechnologies Corporation, priority 2023, published 2026).

Columns and labels:
[1] = target: MUC1*45 (UniProt P15941 1110-1255); assay: cell-based or functional assay
[2] = tested on: NCI-H1975; assay: xCELLigence impedance cytotoxicity, NCI-H1975; assay type: cell-based, human; details: Example 9 (FIGS. 35-36); read-out: IC50 for killing of H1975-wt cells
Experimental: (§1) An xCELLigence RTCA MP Instrument (Agilent) was used to assess real-time killing of target cancer cells). In the xCELLigence system, target cancer cells, which are adherent, are plated onto electrode array 96-well plates. Adherent cells insulate the electrode and increase the impedance. The number of adherent cancer cells is directly proportional to impedance. […] Therefore, increasing impedance reflects the growth of the cancer cells and decreasing impedance reflects the killing of the cancer cells.
(§2) Target Cancer cells (Table 9) were seeded onto a multi-electrode well plate at a density of 5000 cells/well (100 μL of a 50,000 cells/mL stock) and incubated for 24 hr in a 37° C./5% CO2 incubator. ADCs were prepared as a 2× solution in corresponding growth media and 100 μL of each concentration was added to target cells. As a positive control (100% cell killing) cells were treated with either 1% triton or 1 μM Taxol instead of ADC. After 40-120 hours incubation in a 37° C./5% CO2 incubator cell killing was assessed. In this assay, impedance is measured in real-time. When the adherent cancer cells are killed and come off the electrode surface, impedance (insulation) decreases.

[3] = tested on: H2110-wt lung cancer cell line; assay: xCELLigence impedance cytotoxicity, H2110; assay type: cell-based, human; details: Example 9 (FIGS. 35-36); read-out: IC50, lung cancer H2110-wt cells
Experimental: as §1, §2
(§3) To directly compare the C2 and 3C2B1 anti-MUC1* antibodies as ADC targeting domains, a panel of MUC1* positive cancer cell lines representing different cancer types were treated with C2-deruxtecan versus 3C2B1-deruxtecan (FIG. 35) or C2-MC-VA-PAB-exatecan versus 3C2B1-MC-VA-PAB-exatecan (FIG. 36). In some cases, the cancer cells were engineered to express high levels of MUC1*45.

[4] = tested on: CFPAC1-wt pancreatic cancer cell line; assay: xCELLigence impedance cytotoxicity, CFPAC1; assay type: cell-based, human; details: Example 9 (FIGS. 35-36); read-out: IC50, CFPAC1-wt pancreatic cancer cells
Experimental: as §1, §2, §3

[5] = tested on: T47D; assay: xCELLigence impedance cytotoxicity, T47D; assay type: cell-based, human; details: Example 9 (FIGS. 35-36); average over batches for DXd ADCs; read-out: IC50 for killing of breast cancer T47D-wt cells
Experimental: as §1, §2

[6] = target: T1, PSMGFR C-10 peptide; assay: ELISA on PSMGFR C-10 peptide; Table 4 grade
T1 peptide: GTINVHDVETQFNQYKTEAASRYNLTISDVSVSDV

[7] = Toxicity in animal studies; assay type: in vivo; details: each antibody incorporated into several ADC formats
Source text: Exatecans and deruxtecans can also have bystander effects. […] It is not completely clear whether these side effects are due to the payload or to the HER2 target, which is also expressed on normal lung and normal heart. The first two patients treated with a HER2 targeting CAR T cell product died shortly after the infusion. […] More recently, yet another patient died after being treated with a different HER2-targeting ADC. […] 32CB1, C2 and 20A10 unexpectedly have an extremely high degree of cancer specificity and elicited no toxicities in animal studies, where each antibody was incorporated into several ADC formats.

[8] = tested on: breast cancer, pancreatic cancer, and lung cancer cell lines; assay: Cytotoxicity of ADCs with additional linkers and toxins (FIGS. 30-31); assay type: cell-based; details: breast cancer and pancreatic cancer cell
Experimental: FIG. 30 is a table showing cytotoxicity of the indicated MUC1* ADCs against indicated cancer cells. IC50 values were determined from xCELLigence data. FIG. 30 discloses “GGFG” as SEQ ID NO: 160, “GGGG” as SEQ ID NO: 161, “GGVA” as SEQ ID NO: 162, “GGVG” as SEQ ID NO: 163.
FIG. 31 is a table showing cytotoxicity of the indicated MUC1* ADCs against indicated cancer cells. IC50 values were determined from PrestoBlue data.
An anti-MUC1* antibody was conjugated to several toxins via a number of different linkers (compounds VIII-XXII).

[9] = tested on: T47D-MUC1*; assay: PrestoBlue live/dead cell assay, T47D-MUC1*; assay type: cell-based, human; details: Presto Blue; 72-120 hour incubation
Experimental: (§4) Another method of measuring the killing activity of ADCs against target cancer cells is to use the PrestoBlue live/dead cell assay (ThermoFisher). Target cancer cells were seeded in a black-walled, clear-bottom 96-well tissue culture plate at a density of 5000 cells/well (100 μL of a 50,000 cells/mL stock) and incubated overnight in a 37° C./5% CO2 incubator. ADCs were prepared as a 2× solution in corresponding cancer cell growth media and 100 μL of each concentration was added to target cancer cells. As a positive control (100% killing) cancer cells were treated with 1 μM Taxol instead of ADC. After 72 hour-120 hour incubation in a 37° C./5% CO2 incubator, cell viability was measure by fluorescence using the PrestoBlue HS assay (ThermoFisher). Briefly, after the incubation period, 20 μL of PrestoBlue HS solution was added. Fluorescence (Ex 560 nm/Em 590 nm) was recorded after 30-90 min. incubation using a Tecan plate reader. Percentage viability was determined by PrestoBlue HS staining and normalized to 1 μM taxol treated cells.
(§5) The normalized fluorescence values were imported into the graph program, Sigma Plot, data plotted as ADC concentration versus normalized fluorescence signal and curve fitted using a four-parameter Hill equation: f=y0+a*x^b/(c^b+x^b) to calculate IC50 values. IC50 values for the ADCs were generally consistent between the xCELLigence and Presto Blue assays.

[10] = tested on: HPAFII; assay: PrestoBlue live/dead cell assay, HPAFII; assay type: cell-based, human; details: Presto Blue; 72-120 hour incubation
Experimental: as §4, §5

[11] = tested on: HPAFII-MUC1*; assay: PrestoBlue live/dead cell assay, HPAFII-MUC1*; assay type: cell-based, human; details: Presto Blue; 72-120 hour incubation
Experimental: as §4, §5

B1: C2-deruxtecan (antibody, mouse IgG1, kappa)
VH: EVQLEESGGGLVKPGGSLKLSCAASGFTFSGYAMSWVRQTPEKRLEWVATISSGGTYIYYPDSVKGRFTISRDNAKNTLYLQMSSLRSEDTAMYYCARLGGDNYYEYFDVWGAGTTVTVSSAKTTPPSVYAKTTPPSVYPLAPGSAAQTNSMVTLGCLVKGYFPEPVTVTWNSGSLSSGVHTFPAVLQSDLYTLSSSVTVPSSTWPSETVTCNVAHPASSTKVDKKIVPRDCGCKPCICTVPEVSSVFIFPPKPKDVLTITLTPKVTCVVVDISKDDPEVQFSWFVDDVEVHTAQTQPREEQFNSTFRSVSELPIMHQDWLNGKEFKCRVNSAAFPAPIEKTISKTKGRPKAPQVYTIPPPKEQMAKDKVSLTCMITDFFPEDITVEWQWNGQPAENYKNTQPIMDTDGSYFVYSKLNVQKSNWEAGNTFTCSVLHEGLHNHHTEKSLSHSPGK
VL: DIVITQSTASLGVSLGQRATISCRASKSVSTSGYSYMHWYQQRPGQPPKLLIYLASNLESGVPARFSGSGSGTDFTLNIHPVEEEDAATYYCQHSRELPFTFGGGTKLEIKRADAAPTVSADAAPTVSIFPPSSEQLTSGGASVVCFLNNFYPKDINVKWKIDGSERQNGVLNSWTDQDSKDSTYSMSSTLTLTKDEYERHNSYTCEATHKTSTSPIVKSFNRNEC
modifications: deruxtecan (MC-GGFG-AM-DXd) on reduced cysteine thiols of the antibody, sites not stated; deruxtecan (MC-GGFG-AM-DXd) on reduced cysteine thiols of the antibody, sites not stated; average DAR 7.7
For B1, the “IC50, killing of H1975 lung cancer cells engineered to express MUC1*45 (xCELLigence)” value [1] was 54 nM and the “IC50, killing of T47D breast cancer cells engineered to express MUC1*45 (xCELLigence)” value [1] was 2 nM.

B2: 3C2B1-MC-VA-PAB-exatecan (antibody, V domains shown)
VH: EVMLVESGGGLVKPGGSLKLSCAASGITFSTYTMSWVRQTPEKRLEWVATISTGGDKTYYSDSVKGRFTISRDNAKNNLYLQMSSLRSEDTALYYCARGTTAMYYYAMDYWGQGTSVTVSS
VL: DIVLTQSPASLAVSLGQRATISCRASKSISTSDYNYIHWYQQKPGQPPKLLIYLASNLESGVPARFSGSGSGTDFTLNIHPVEEEDAATYYCQHSRELPLTFGAGTKLELK
modifications: MC-VA-PAB-exatecan on reduced cysteine thiols of the antibody, sites not stated; MC-VA-PAB-exatecan on reduced cysteine thiols of the antibody, sites not stated; DAR 5.2
B2 gave an IC50 [2] of 189 nM, an IC50 [3] of 113 nM and an IC50 [4] of 40 nM. The IC50 [5] was 77 nM, the “IC50, killing of H1975 cells engineered to express MUC1*45 (xCELLigence)” value [1] was 141 nM and the “IC50, killing of T47D cells engineered to express more MUC1*45 (xCELLigence)” value [1] was 31 nM.

B3: anti-MUC1* antibody 20A10 (antibody, IgG2b, V domains shown)
VH: EVMLVESGGGLVKPGGSLKLSCAASGFTFSTYAMSWIRQTPEKRLEWVASIGRAGSTYYSDSVKGRFTISRDNVRNILYLQMSSLRSEDTAMYYCARGPIYNDYDEFAYWGQGTLVTVSA
VL: NIMMTQSPSSLAVSAGEKVTMSCKSSQSVLYSSNQKNYLAWYQQKPGQSPKLLIYWASTRESGVPDRFTGSGSGTDFTLTISSVQAEDLAVYYCHQYLSSLTFGAGTKLELKA
notes: Humanised form is m25
B3: no binding [6].

B4: 20A10: anti-MUC1* monoclonal antibody, IgG2b isotype (antibody)
VH: EVMLVESGGGLVKPGGSLKLSCAASGFTFSTYAMSWIRQTPEKRLEWVASIGRAGSTYYSDSVKGRFTISRDNVRNILYLQMSSLRSEDTAMYYCARGPIYNDYDEFAYWGQGTLVTVSAAKTTPPSVYPLAPGCGDTTGSSVTLGCLVKGYFPESVTVTWNSGSLSSSVHTFPALLQSGLYTMSSSVTVPSSTWPSQTVTCSVAHPASSTTVDKKLEPSGPISTINPCPPCKECHKCPAPNLEGGPSVFIFPPNIKDVLMISLTPKVTCVVVDVSEDDPDVRISWFVNNVEVHTAQTQTHREDYNSTIRVVSALPIQHQDWMSGKEFKCKVNNKDLPSPIERTISKIKGLVRAPQVYILPPPAEQLSRKDVSLTCLVVGFNPGDISVEWTSNGHTEENYKDTAPVLDSDGSYFIYSKLDIKTSKWEKTDSFSCNVRHEGLKNYYLKKTISRSPGK
VL: NIMMTQSPSSLAVSAGEKVTMSCKSSQSVLYSSNQKNYLAWYQQKPGQSPKLLIYWASTRESGVPDRFTGSGSGTDFTLTISSVQAEDLAVYYCHQYLSSLTFGAGTKLELKADAAPTVSIFPPSSEQLTSGGASVVCFLNNFYPKDINVKWKIDGSERQNGVLNSWTDQDSKDSTYSMSSTLTLTKDEYERHNSYTCEATHKTSTSPIVKSFNRNEC
In the case of B4, the “toxicities in animal studies” value [7] is reported as “no toxicities”.

B5: C2 MC-VA-AM DXd (conjugate, listed as Mus sp.)
heavy: B1 VH
light: B1 VL
modifications: conjugated MC-VA-AM DXd linker-toxin
For B5, the “IC50 compared to deruxtecan ADC” value [8] was “three-fold lower”.

B6: C2 MC-VC-PAB MMAF (conjugate, listed as Mus sp.)
heavy: B1 VH
light: B1 VL
modifications: MC-VC-PAB-MMAF
notes: ADC: antibody C2 conjugated via MC-VC-PAB linker to MMAF
Work on B6 yielded an IC50 [9] of 1.3 nM, an IC50 [10] of 100 nM and an IC50 [11] of 90 nM.
